Measured values taken from the DeepSol protein solubility set.

assay: soluble on expression in E. coli; label from the status in PepcDB or PDB records

Sequence | soluble on expression in E. coli
MSKLDLNALNELPKVDRILALAETNAELEKLDAEGRVAWALDNLPGEYVLSSSFGIQAAVSLHLVNQIRPDIPVILTDTGYLFPETYRFIDELTDKLKLNLKVYRATESAAWQEARYGKLWEQGVEGIEKYNDINKVEPMNRALKELNAQTWFAGLRREQSGSRANLPVLAIQRGVFKVLPIIDWDNRTIYQYLQKHGLKYHPLWDEGYLSVGDTHTTRKWEPGMAEEETRFFGLKRECGLHEGLEHHHHHH | soluble
MSKLPEIGTKISLTDKAYEIIKDAIMTNIFKPGELLIEEKLAEQLAISRTPLRAALRKLAYDHLVEINSSRNVIVANIGQKDVEEITVVREVLEPLAVKELENNIGEDELKKLEEILCRQKKAVLEDNYEELIKMEYEFHVAIGELTHNKWLHGMLKDINTIVQRYLILSGSLNKYKEVAIKEHEVIISEIRQGNYDKAVESMKCHISNVSSRMLK | not soluble
MSKPGRTILASKVAETFNTEIINNVEEYKKTHNGQGPLLVGFLANNDPAAKMYATWTQKTSESMGFRYDLRVIEDKDFLEEAIIQANGDDSVNGIMVYFPVFGNAQDQYLQQVVCKEKDVEGLNHVYYQNLYHNVRYLDKENRLKSILPCTPLAIVKILEFLKIYNNLLPEGNRLYGKKCIVINRSEIVGRPLAALLANDGATVYSVDVNNIQKFTRGESLKLNKHHVEDLGEYSEDLLKKCSLDSDVVITGVPSENYKFPTEYIKEGAVCINFACTKNFSDDVKEKASLYVPMTGKVTIAMLLRNMLRLVRNVELSKEK | soluble
MSKQLLALNIDGALLRSNGKIHQATKDAIEYVKKKGIYVTLVTNRHFRSAQKIAKSLKLDAKLITHSGAYIAEKIDAPFFEKRISDDHTFNIVQVLESYQCNIRLLHEKYSIGNKKKVNSNLLGKALIHPSDPIFYPVQFVESLSDLLMDEPVSAPVIEVYTEHDIQHDITETITKAFPAVDVIRVNDEKLNIVPKGVSKEAGLALVASELGLSMDDVVAIGHQYDDLPMIELAGLGVAMGNAVPEIKRKADWVTRSNDEQGVAYMMKEYFRMQQRKGFLDKFHMKRV | not soluble
MSKRKAEEAPAPKLASIFTKKVKPAEEDNNQKSWKFVCWNVAGLRACVKKSDFKEVLAEEPDLVFLGETKCKEWPPEMEETFKNYTKTLVVSTEKNGGYAGVGLLSKCAPMKVHKGIGDPEFDTAGRLIIAEFSKFYFIGAYVPNSGAKLVNLEKRGRWEKLLTEKMKEMDEKKPVIYGGDLNVAHNEIDLKNPESNRNKTAGFTDQERGWFSEMLELGFTDTFRAMHPDEKKYSFWSYLANSRQKDVGWRLDYYVVSNRIMNKVKRSDIMSSVMGSDHAPVVMQIDF | soluble
MSKSLKKLVEESREKNQPEVDMSDRGISNMLDVNGLFTLSHITQLVLSHNKLTMVPPNIAELKNLEVLNFFNNQIEELPTQISSLQKLKHLNLGMNRLNTLPRGFGSLPALEVLDLTYNNLSENSLPGNFFYLTTLRALYLSDNDFEILPPDIGKLTKLQILSLRDNDLISLPKEIGELTQLKELHIQGNRLTVLPPELGNLDLTGQKQVFKAENNPWVTPIADQFQLGVSHVFEYIRSETYKYLYGRHMQANPEPPKKNNDKSKKISRKPLAAKNR | not soluble
MSKSTAEIRQAFLDFFHSKGHQVVASSSLVPHNDPTLLFTNAGMNQFKDVFLGLDKRNYSRATTSQRCVRAGGKHNDLENVGYTARHHTFFEMLGNFSFGDYFKHDAIQFAWELLTSEKWFALPKERLWVTVYESDDEAYEIWEKEVGIPRERIIRIGDNKGAPYASDNFWQMGDTGPCGPCTEIFYDHGDHIWGGPPGSPEEDGDRYIEIWNIVFMQFNRQADGTMEPLPKPSVDTGMGLERIAAVLQHVNSNYDIDLFRTLIQAVAKVTGATDLSNKSLRVIADHIRSCAFLIADGVMPSNENRGYVLRRIIRRAVRHGNMLGAKETFFYKLVGPLIDVMGSAGEDLKRQQAQVEQVLKTEEEQFARTLERGLALLDEELAKLSGDTLDGETAFRLYDTYGFPVDLTADVCRERNIKVDEAGFEAAMEEQRRRAREASGFGADYNAMIRVDSASEFKGYDHLELNGKVTALFVDGKAVDAINAGQEAVVVLDQTPFYAESGGQVGDKGELKGANFSFAVEDTQKYGQAIGHIGKLAAGSLKVGDAVQADIDEARRARIRLNHSATHLMHAALRQVLGTHVSQKGSLVNDKVLRFDFSHNEAMKPEEIRAVEDLVNAQIRRNLPIETNIMNLEAAKAKGAMALFGEKYDERVRVLSMGDFSTELCGGTHASRTGDIGLFRIISESGTAAGVRRIEAVTGEGAITTVHADSDRLSEVAHLLKGDSNNLADKVRSVLERTRQLEKELQQLKEQAAAQESANLSSKAIDVNGVKLLVSELSGVEPKMLRTMVDDLKNQLGSTIIVLATVAEGKVSLIAGVSKDVTDRVKAGELIGMVAQQVGGKGGGRPDMAQAGGTDAAALPAALASVKGWVSAKLQ | not soluble
MSKYAGIVLAGGMSSRFGEPKALAIWKETTFVEHIVKVMGNTLQDIVVISHTDIKERVEQFVQVPVIEDIPHYKGNGPLAGIVSGMEYIEADWYAIMPCDAPNVSHEWFTILLEQTNNEYDAVVPIINGRKQPLLAAYHNRVKEKIYALLQEEKRSMGQLLSQCNVKYVSGEDVQANADWFINVNTKEEYVQAQKDLSNE | soluble
MSKYSDAKELASLTLGKKTEYANQYDPSLLQPVPRSLNRNDLHLSATLPFQGCDIWTLYELSWLNQKGLPQVAIGEVSIPATSANLIESKSFKLYLNSYNQTRFASWDEVQTRLVHDLSACAGETVTVNVKSLNEYTAEPIVTMQGECIDDQDIEIANYEFDDALLQGAAQGEEVSEVLHSHLLKSNCLITNQPDWGSVEIAYHGAKMNREALLRYLVSFREHNEFHEQCVERIFTDIMRYCQPQSLTVYARYTRRGGLDINPFRSSHQSAPNHNQRMARQ | not soluble
MSLADPNESTFARIRRTKKMRIGAVGGGAPYYMKDLASGQWKGFYVDIAKALADDMEAELEITETTWGNSVLDLQSNKIDIFFGLNPTPKRALVVDFSVPVFNNAFGILCKKDFKPKTWAELNSPDVKIAVDQGSSHDQVVSRLIPKAQISRLKTADDATAALQTGRVDAQCLITMLSLTVLKKNPSLGQFVLPTPIFATTSNAGFRRETDKTWRDYVNTWIDFNKGLGFIRNAIITNMELVGVTEADIPPGVSLEGHHHHHH | soluble
MSLAGEVWLQTHHPDHPLLQTLINGGYHTFANTELQQRQAAGLPPFAHLALLRAEAKDTTSTQQFLATVRKHIPIDNAVECYGPMSAPMPRRAGYERYQLLLSSSQRNTLHRTLNVLIPAIHALPEARRVRWSLDVDPVDLYEGHHHHHH | not soluble
MSLAGTIAIKNGYVFDPLNEINGEKMDIFIRDGKVVKELSASEMKTSRVIDASGMTVMPGGVDSHSHVAGAKVNAGRSMRPEDHYKANLKKTPLTHSGSGYTVPSVYKQGYDYAAMGYTTVFEAAVPPLEARHTHEEMRATPLLDMGGYLVLGNNFFLMRYLRDGDMEKAAAYVAWMMKTHKTYGIKCVNPAGVENWAWGKNVSTLDETNIHFEITPREVIKGLTEVNETLGMPMPVHLHANNLGHPGCYAITKDSLKIPDGVKTKQNMAVEWAETKMDLSRDRSVYLTHLMFNSFAGTTWGDCESGVKDIADYINNKDHVVIDSGCTPFGEATVMTGDGPAIHDLYTLTGNKWSNTDVEMECGSGVLPFTYLKSNPVHSLQWAMGLECLLLIKDPWKTIMTTDSPNGGPFTKYPEVMTWIMSEAFRKQTFSECHKWANDRSELGGINRELSLYDLAILTRANPAKTIGMAHRKGSLGVGADGDVTVYNINPQQLDANNYEALLRTFRKAEYTVKGGEIVAVKGEIVSLPEKRTYYSEVHVENEREKEMLVDVKEWFRYYTLGFANYSTPEKYLANPTPIQVNSEGHHHHHH | not soluble
